# In publication PMC12674617 (2025):
# B1: full-length BICD2 tagged on the C-terminus with mini-TurboID (BICD2-mTrbo) [human] / KIF5B [human (endogenous in HEK293)] (parent complex)
# chain 1: MSAPSEEEEYARLVMEAQPEWLRAEVKRLSHELAETTREKIQAAEYGLAVLEEKHQLKLQFEELEVDYEAIRSEMEQLKEAFGQAHTNHKKVAADGESREESLIQESASKEQYYVRKVLELQTELKQLRNVLTNTQSENERLASVAQELKEINQNVEIQRGRLRDDIKEYKFREARLLQDYSELEEENISLQKQVSVLRQNQVEFEGLKHEIKRLEEETEYLNSQLEDAIRLKEISERQLEEALETLKTEREQKNSLRKELSHYMSINDSFYTSHLHVSLDGLKFSDDAAEPNNDAEALVNGFEHGGLAKLPLDNKTSTPKKEGLAPPSPSLVSDLLSELNISEIQKLKQQLMQMEREKAGLLATLQDTQKQLEHTRGSLSEQQEKVTRLTENLSALRRLQASKERQTALDNEKDRDSHEDGDYYEVDINGPEILACKYHVAVAEAGELREQLKALRSTHEAREAQHAEEKGRYEAEGQALTEKVSLLEKASRQDRELLARLEKELKKVSDVAGETQGSLSVAQDELVTFSEELANLYHHVCMCNNETPNRVMLDYYREGQGGAGRTSPGGRTSPEARGRRSPILLPKGLLAPEAGRADGGTGDSSPSPGSSLPSPLSDPRREPMNIYNLIAIIRDQIKHLQAAVDRTTELSRQRIASQELGPAVDKDKEALMEEILKLKSLLSTKREQITTLRTVLKANKQTAEVALANLKSKYENEKAMVTETMMKLRNELKALKEDAATFSSLRAMFATRCDEYITQLDEMQRQLAAAEDEKKTLNSLLRMAIQQKLALTQRLELLELDHEQTRRGRAKAAPKTKPATPSL
# chain 2: MADLAECNIKVMCRFRPLNESEVNRGDKYIAKFQGEDTVVIASKPYAFDRVFQSSTSQEQVYNDCAKKIVKDVLEGYNGTIFAYGQTSSGKTHTMEGKLHDPEGMGIIPRIVQDIFNYIYSMDENLEFHIKVSYFEIYLDKIRDLLDVSKTNLSVHEDKNRVPYVKGCTERFVCSPDEVMDTIDEGKSNRHVAVTNMNEHSSRSHSIFLINVKQENTQTEQKLSGKLYLVDLAGSEKVSKTGAEGAVLDEAKNINKSLSALGNVISALAEGSTYVPYRDSKMTRILQDSLGGNCRTTIVICCSPSSYNESETKSTLLFGQRAKTIKNTVCVNVELTAEQWKKKYEKEKEKNKILRNTIQWLENELNRWRNGETVPIDEQFDKEKANLEAFTVDKDITLTNDKPATAIGVIGNFTDAERRKCEEEIAKLYKQLDDKDEEINQQSQLVEKLKTQMLDQEELLASTRRDQDNMQAELNRLQAENDASKEEVKEVLQALEELAVNYDQKSQEVEDKTKEYELLSDELNQKSATLASIDAELQKLKEMTNHQKKRAAEMMASLLKDLAEIGIAVGNNDVKQPEGTGMIDEEFTVARLYISKMKSEVKTMVKRCKQLESTQTESNKKMEENEKELAACQLRISQHEAKIKSLTEYLQNVEQKKRQLEESVDALSEELVQLRAQEKVHEMEKEHLNKVQTANEVKQAVEQQIQSHRETHQKQISSLRDEVEAKAKLITDLQDQNQKMMLEQERLRVEHEKLKATDQEKSRKLHELTVMQDRREQARQDLKGLEETVAKELQTLHNLRKLFVQDLATRVKKSAEIDSDDTGGSAAQKQKISFLENNLEQLTKVHKQLVRDNADLRCELPKLEKRLRATAERVKALESALKEAKENASRDRKRYQQEVDRIKEAVRSKNMARRGHSAQIAKPIRPGQHPAASPTHPSAIRGGGAFVQNSQPVAVRGGGGKQV
# Variants of: B1
# Experiment: proximity biotinylation, streptavidin bead purification, western blot quantification; parent: 1; read off a plot
row,Variant,ratio to parent
1,chain 1 R747C,~0.5
2,chain 1 N188T,~0.86
3,chain 1 R694C,~0.78
